Experimental data published in US20200138943A1 (Janssen / Centocor, published 2020).

Key:
human recombinant IL-23 [1] = target: T1, human recombinant IL-23 (human, UniProt P29460 23-328); assay: ELISA: mAb immobilized on the plate, biotinylated IL-23 (bt.IL-23) titrated from about 0.01 to 100 ng/ml
T1 construct: p19-p40 heterodimer; also called hrIL-23; hIL-23
T1 sequence 1: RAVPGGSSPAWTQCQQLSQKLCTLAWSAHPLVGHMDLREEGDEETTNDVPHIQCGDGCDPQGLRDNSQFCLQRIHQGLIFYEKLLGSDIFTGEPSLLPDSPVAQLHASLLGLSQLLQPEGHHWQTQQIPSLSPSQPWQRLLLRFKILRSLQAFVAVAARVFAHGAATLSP
T1 sequence 2: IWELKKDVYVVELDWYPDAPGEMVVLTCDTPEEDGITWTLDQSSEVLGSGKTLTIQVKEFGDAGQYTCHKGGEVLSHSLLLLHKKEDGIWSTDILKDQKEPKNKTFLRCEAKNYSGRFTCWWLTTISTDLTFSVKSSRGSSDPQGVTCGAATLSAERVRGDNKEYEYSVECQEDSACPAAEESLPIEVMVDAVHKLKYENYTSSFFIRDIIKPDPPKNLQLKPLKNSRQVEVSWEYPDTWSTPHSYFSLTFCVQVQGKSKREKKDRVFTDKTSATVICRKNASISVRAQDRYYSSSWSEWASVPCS

human recombinant IL-12 = target: T2, human recombinant IL-12 (human, UniProt P29459 23-219; P29460 23-328); assay: cytokine capture ELISA: mAb coated on the plate, cytokine at 100 ng/ml, detected with biotinylated anti-p40 mAb and HRP-streptavidin
T2 construct: p35-p40 heterodimer; also called hrIL-12
T2 sequence (looked up) 1: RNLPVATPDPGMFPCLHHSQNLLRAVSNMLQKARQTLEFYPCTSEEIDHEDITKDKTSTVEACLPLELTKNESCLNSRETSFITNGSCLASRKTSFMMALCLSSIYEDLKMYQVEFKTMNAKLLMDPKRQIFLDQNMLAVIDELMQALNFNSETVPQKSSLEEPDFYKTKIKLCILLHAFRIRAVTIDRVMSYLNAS
T2 sequence (looked up) 2: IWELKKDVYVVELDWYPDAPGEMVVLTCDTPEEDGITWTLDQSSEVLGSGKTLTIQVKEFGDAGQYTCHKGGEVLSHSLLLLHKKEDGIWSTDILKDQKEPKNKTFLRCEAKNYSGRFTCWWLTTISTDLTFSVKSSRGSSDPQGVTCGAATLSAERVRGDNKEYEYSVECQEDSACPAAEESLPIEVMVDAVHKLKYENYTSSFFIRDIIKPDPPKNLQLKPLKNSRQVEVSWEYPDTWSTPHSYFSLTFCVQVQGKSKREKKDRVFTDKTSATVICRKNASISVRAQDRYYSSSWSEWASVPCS
Description: (§1) Purified mouse anti-human IL-23 mAbs were evaluated in cytokine capture ELISA to determine their antigen subunit specificity. Briefly, IL-23 mAbs were coated onto plates and incubated with 100 ng/ml (hr=human recombinant) hrIL-23, hrIL-12, and hrp40, respectively. Following incubation with biotinylated anti-p40 mAb, the binding was detected using HRP-conjugated streptavidin. An anti-p40 mAb and an anti-IL-12 mAb (20C2, Catalog No. 555065, BD Pharmingen, San Diego, Calif.) with known specificity were used as controls.

[2] = target: T3, human recombinant p40 monomer (human, UniProt P29460 23-328); assay: as above
T3 construct: also called hrp40
T3 sequence (looked up): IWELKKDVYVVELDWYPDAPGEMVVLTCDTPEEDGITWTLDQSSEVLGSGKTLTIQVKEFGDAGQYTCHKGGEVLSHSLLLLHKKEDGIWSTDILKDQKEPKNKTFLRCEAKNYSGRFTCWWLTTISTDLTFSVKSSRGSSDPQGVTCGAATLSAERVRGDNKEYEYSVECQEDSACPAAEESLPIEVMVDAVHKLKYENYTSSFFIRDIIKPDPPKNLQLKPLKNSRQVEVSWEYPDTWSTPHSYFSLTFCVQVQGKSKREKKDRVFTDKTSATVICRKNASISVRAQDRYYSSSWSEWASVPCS
Description: as §1

[3] = target: mutant human IL-23 protein 3220 (human) (UniProt P29460); assay: MSD ELISA, coated IL-23 protein, Sulfo-TAG labeled mAb
[4] = target: mutant human IL-23 protein 3397 (human) (UniProt P29460); assay: as above
murine IL-23 = target: T4, murine IL-23 (mouse, UniProt Q9EQ14 22-196; P43432 23-335); assay: MSD ELISA: protein coated at 100 to 0 µg/mL, detected with 2 µg/mL Sulfo-TAG labeled mAb
T4 construct: also called mouse IL-23
T4 sequence (looked up) 1: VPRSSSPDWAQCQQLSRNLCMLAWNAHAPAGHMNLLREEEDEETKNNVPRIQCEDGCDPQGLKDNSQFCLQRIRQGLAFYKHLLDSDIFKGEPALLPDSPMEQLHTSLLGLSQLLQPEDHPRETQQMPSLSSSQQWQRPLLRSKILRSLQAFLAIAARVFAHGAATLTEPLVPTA
T4 sequence (looked up) 2: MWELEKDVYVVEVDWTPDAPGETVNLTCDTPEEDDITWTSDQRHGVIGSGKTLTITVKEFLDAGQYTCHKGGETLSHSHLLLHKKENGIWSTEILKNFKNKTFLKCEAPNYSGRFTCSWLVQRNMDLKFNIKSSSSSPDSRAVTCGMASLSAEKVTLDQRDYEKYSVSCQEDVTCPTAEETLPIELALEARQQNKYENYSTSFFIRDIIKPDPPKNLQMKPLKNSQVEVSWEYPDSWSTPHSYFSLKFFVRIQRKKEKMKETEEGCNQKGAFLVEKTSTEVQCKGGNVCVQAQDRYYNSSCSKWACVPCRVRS
Description: One-hundred and fifty μl of 5% MSD Blocker A buffer was added to each well and incubated for 1 hr at room temperature. Plates were washed three times with 0.1 M HEPES buffer, pH 7.4. These protein-charged ELISA micro-wells were incubated with 25 μl of 2 μg/mL MSD Sulfo-TAG labeled C1249, C1269, or CNTO 209 mAbs. After incubation for 2 hours with shaking at room temperature, plates were washed 3 times with 0.1 M HEPES buffer (pH 7.4). MSD Read Buffer T was diluted with distilled water (4 fold) and dispensed at a volume of 150 μl/well and analyzed with a SECTOR imager 6000.

human recombinant IL-23 [5] = target: T1, human recombinant IL-23; assay: blocking ELISA: biotinylated hrIL-23 preincubated with the titrated protein, binding to plate-immobilized IL-23R detected with HRP-streptavidin
Description: (§2) In this experiment, IL-23R was immobilized on a plate. Biotinylated hrIL-23 was added to the plate either alone or after preincubation with individual IL-23p19 mAbs. Soluble IL-23R (IL-23R-Fc) was used as a positive control. IL-23 binding was detected with HRP-conjugated streptavidin. […] In contrast, when IL-12Rβ1 was immobilized on a plate, none of the IL-23p19 mAbs were able to inhibit IL-23/IL-12Rβ1 binding (data not shown).

human recombinant IL-23 [6] = target: T1, human recombinant IL-23; assay: as above; remark: listed apart in the source
Description: as §2

human recombinant IL-23 [7] = target: T1, human recombinant IL-23; assay: competition ELISA: hIL-23 coated on the plate, 10 nM labeled C1269 mixed with the unlabeled competitor titrated from 3000 nM to 0
Description: […] of a 20 μg/ml hIL-23 coated on plate, mixed with 10 nM of labeled C1269 and serially diluted from 3000 nM to 0 unlabeled competitors, C1269 and C1249, in 25 μL. Relative binding was calculated by setting the signal in the absence of competitor to 100%.

human recombinant IL-23 [8] = target: T1, human recombinant IL-23; assay: blocking ELISA: biotinylated hrIL-23 preincubated with the titrated mAb, binding to plate-immobilized IL-23R detected with HRP-streptavidin
Description: as §2

B1: C1275 (antibody, V domains shown)
VH: EVNLEESGGGLVQPGRSMKLSCVASGFTFSNYWMTWVRQSPEKGLEWVAEIRLKSNNYATHYAESVKGRFTISRDDSKSSVYLQMNNLRAEDTAIYYCTRGGGYDVGAWFAYWGQGTLVTVSA
VL: DIVLTQSPASLAVSLGQRATISCRASENVEYYGTGLIQWYQQKPGQPPKLLIYASSNVESGVPARFSGSGSGTDFSLYIHPVEEDDIAMYFCQQSRKVPSTFGGGTKLEIK
notes: Purified mouse monoclonal antibody; also called IL-23p19 mAb; mouse anti-human IL-23 mAb
B1: binds (human recombinant IL-23 [1]); no binding (tested: 100 ng/ml) (human recombinant IL-12); no binding (tested: 100 ng/ml) [2].

B2: C1249 (antibody, V domains shown)
VH: EVQLVESGGGLVQPKGSLKLSCAASGFNFNTYAMHWVCQAPGKGLEWIGRIRSKSHNYATDYADPVKDRFTISRDDSQGLLYLLMNNLKTEDTAMYYCMREGIYGSFAYWGQGTLVTVSA
VL: DIVLTQSPASLAVSLGQRATISCRASKSVSSSAYSFFHWYQQKPGQPPKLLIYLASNLQSGVPARFSGSGSGTDFTLNIHPVEAEDAATYYCQHSGELPFTFGSGTKLEIK
notes: as for B1
For B2, the percent reduction of binding activity against wild-type human IL-23 [3] was over 80%, the percent reduction of binding against wild-type human IL-23 [4] was 95% and the binding result (murine IL-23) was “no binding”. B2: binds (human recombinant IL-23 [1]); no binding (tested: 100 ng/ml) (human recombinant IL-12); no binding (tested: 100 ng/ml) [2].

B3: Soluble IL-23R (IL-23R-Fc) (Fc fusion, UniProt Q5VWK5 24-353, looked up, not shown: a dimerising Fc or GST)
chain: GITNINCSGHIWVEPATIFKMGMNISIYCQAAIKNCQPRKLHFYKNGIKERFQITRINKTTARLWYKNFLEPHASMYCTAECPKHFQETLICGKDISSGYPPDIPDEVTCVIYEYSGNMTCTWNAGKLTYIDTKYVVHVKSLETEEEQQYLTSSYINISTDSLQGGKKYLVWVQAANALGMEESKQLQIHLDDIVIPSAAVISRAETINATVPKTIIYWDSQTTIEKVSCEMRYKATTNQTWNVKEFDTNFTYVQQSEFYLEPNIKYVFQVRCQETGKRYWQPWSSLFFHKTPETVPQVTSKAFQHDTWNSGLTVASISTGHLTSDNRGD
In the case of B3, the “IC50 (read off the curve)” value (human recombinant IL-23 [5]) is reported as about 0.05 µg/mL and the “IC50 (read off the curve)” value (human recombinant IL-23 [6]) is reported as about 0.04 µg/mL.

B4: C1269 (antibody, V domains shown)
VH: DVNLVESGGGLVKPGGSLKLSCAASGFTFSSYTMSWVRQTPEKRLEWVATISSGGTYTYYPDSVKGRFTISRDNAKNTLYLQMSSLKSEDTAIFYCTRDNHAYDRGPFFDSWGQGATLTVSS
VL: DIVMSQSPSSLAVSVGEKVTMSCKSSQNLFYRNNQKNYLAWYQQKPGQSPTLLIYWTSTRESGVPDRFTGSGSGTDFTLTISRVKAEDLAVYYCQQYYSYPPTFGGGTKLEIK
notes: as for B1
In the case of B4, the percent reduction of binding activity against wild-type human IL-23 [3] is reported as over 80%, the percent reduction of binding against wild-type human IL-23 [4] is reported as 90% and the binding result (murine IL-23) is reported as “no binding”. For the same binder, the “IC50 (read off the curve)” value (human recombinant IL-23 [7]) was about 20 nM, the binding result (human recombinant IL-12) was “no binding (tested: 100 ng/ml)” and the binding result [2] was “no binding (tested: 100 ng/ml)”. For the same binder, the “IC50 (read off the curve)” value (human recombinant IL-23 [8]) was about 0.07 µg/mL.

B5: C1273 (antibody, V domains shown)
VH: DVNLVESGGGLVKPGGSLKLSCAASGFTFSSYTMSWVRQTPEKRLEWVATISSGGTYTYYPDSVKGRFTISRDNAKNTLYLQMSSLKSEDTAMFYCTRDNHAYDRGPFFDYWGQGATLTVSS
VL: DIVMSQSPSSLVVSVGEKVTMSCKSSQNLFYRSNQKNHLAWYQQKPGQSPTLLIYWTSTRESGVPDRFTGSGSGTDFTLTISRVKAEDLAVYYCQQYYSYPPTFGGGTKLEIK
notes: as for B1
In the case of B5, the binding result (human recombinant IL-12) is reported as “no binding (tested: 100 ng/ml)”, the binding result [2] is reported as “no binding (tested: 100 ng/ml)” and the “IC50 (read off the curve)” value (human recombinant IL-23 [8]) is reported as about 0.1 µg/mL.
